Test results published in US20210253716A1.

B1: mAb29261 (antibody, human IgG4 S228P, kappa, V domains shown)
VH: EVQLVESGGNLVQPGGSLRLSCAASGFTFSNYAMSWVRQAPGKGLEWVSGITGNGINTYYSVSVKGRFTISRDNSKNTVFLQMNSLRAEDTAIYYCVKERGHSWFGDWFDPWGQGTLVTVSS
VL: DIQMTQSPSSLSASVGDRVTITCRASQGIRNDLGWYQQKPGKAPKRLIYAASSLQSGVPSRFSGSGSGTEFTLTISSLQPEDFATYYCLQHNSYPWTFGQGTKVEIKR
B2: mAb29266 (antibody, human IgG4 S228P, kappa, V domains shown)
VH: QVQLVESGGGVVQPGRSLRLSCEVSGFTFSNYGMHWVRQAPGKGLEWVAVVSYDGSNKYYTDSVKGRFTISRDNSKNTLSLQMNSLRAEDTAVYYCAKDRGITGTSGGVFDIWGQGTMVTVSS
VL: AIRMTQSPSSFSATTGDRVTITCRASQGISSHLAWYQQKPGKAPKFLIYVASTLQSGVPSRFSGSGSGTDFTLTISSLQSEDFATYYCQQYYSYPPTFGQGTKVEIKR

Columns and labels:
[1] = target: human ACVR1 extracellular domain expressed with a C-terminal mouse IgG2a Fc tag (human); test: SPR (Biacore), mAb captured, 25 C
Chain of human ACVR1 extracellular domain expressed with a C-terminal mouse IgG2a Fc tag (human) (chain, as listed by the source limits assumed): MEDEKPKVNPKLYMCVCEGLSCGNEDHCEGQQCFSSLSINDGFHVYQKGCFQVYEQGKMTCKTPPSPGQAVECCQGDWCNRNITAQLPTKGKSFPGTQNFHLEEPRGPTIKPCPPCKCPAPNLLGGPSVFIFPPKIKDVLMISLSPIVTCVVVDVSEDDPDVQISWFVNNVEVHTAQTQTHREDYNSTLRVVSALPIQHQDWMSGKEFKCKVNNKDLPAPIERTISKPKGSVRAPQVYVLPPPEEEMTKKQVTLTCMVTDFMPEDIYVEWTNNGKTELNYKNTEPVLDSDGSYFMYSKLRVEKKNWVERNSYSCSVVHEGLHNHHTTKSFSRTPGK

[2] = target: human ACVR1 extracellular domain expressed with a C-terminal mouse IgG2a Fc tag (human); test: SPR (Biacore), mAb captured, 37 C
[3] = target: mouse ACVR1 extracellular domain expressed with a C-terminal myc-myc-hexahistidine tag (mouse); test: SPR (Biacore), mAb captured, 25 C
Chain of mouse ACVR1 extracellular domain expressed with a C-terminal myc-myc-hexahistidine tag (mouse) (chain, as listed by the source limits assumed): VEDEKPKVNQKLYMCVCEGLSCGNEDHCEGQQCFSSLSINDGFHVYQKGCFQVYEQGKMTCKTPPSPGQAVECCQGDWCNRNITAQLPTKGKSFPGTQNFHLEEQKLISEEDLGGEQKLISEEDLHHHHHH

[4] = target: mouse ACVR1 extracellular domain expressed with a C-terminal myc-myc-hexahistidine tag (mouse); test: SPR (Biacore), mAb captured, 37 C

Binder	100 nM Ag Bound (RU) [1] [RU]	100 nM Ag Bound (RU) [2] [RU]	900 nM or 100 nM Ag Bound (RU) [3] [RU]	900 nM or 100 nM Ag Bound (RU) [4] [RU]
B1	0	11	–	–
B2	–	–	5	5
